Here are results for three substances from patent publication US20180030109A1.

In assay [1] the target is MUC16 (CA125), native, membrane-bound on cancer cells (human) (UniProt Q8WXI7). The assay can be described thus: flow cytometry on OVCAR3 cells, anti-FLAG detection. On the technique in general: In flow cytometry, cells or beads pass a laser one at a time.
Assay [2] concerns the target MUC16-targeted mesothelin-TR3 fusion protein (Meso-TR3) (human). The assay can be described thus: cell-based or functional assay.
Assay [3] addresses MUC16 (CA125), native, membrane-bound on cancer cells (human) (UniProt Q8WXI7). Nature of the assay: cell-based or functional assay.

MUC16-targeted mesothelin-TR3 fusion protein (Meso-TR3), sequence (chain): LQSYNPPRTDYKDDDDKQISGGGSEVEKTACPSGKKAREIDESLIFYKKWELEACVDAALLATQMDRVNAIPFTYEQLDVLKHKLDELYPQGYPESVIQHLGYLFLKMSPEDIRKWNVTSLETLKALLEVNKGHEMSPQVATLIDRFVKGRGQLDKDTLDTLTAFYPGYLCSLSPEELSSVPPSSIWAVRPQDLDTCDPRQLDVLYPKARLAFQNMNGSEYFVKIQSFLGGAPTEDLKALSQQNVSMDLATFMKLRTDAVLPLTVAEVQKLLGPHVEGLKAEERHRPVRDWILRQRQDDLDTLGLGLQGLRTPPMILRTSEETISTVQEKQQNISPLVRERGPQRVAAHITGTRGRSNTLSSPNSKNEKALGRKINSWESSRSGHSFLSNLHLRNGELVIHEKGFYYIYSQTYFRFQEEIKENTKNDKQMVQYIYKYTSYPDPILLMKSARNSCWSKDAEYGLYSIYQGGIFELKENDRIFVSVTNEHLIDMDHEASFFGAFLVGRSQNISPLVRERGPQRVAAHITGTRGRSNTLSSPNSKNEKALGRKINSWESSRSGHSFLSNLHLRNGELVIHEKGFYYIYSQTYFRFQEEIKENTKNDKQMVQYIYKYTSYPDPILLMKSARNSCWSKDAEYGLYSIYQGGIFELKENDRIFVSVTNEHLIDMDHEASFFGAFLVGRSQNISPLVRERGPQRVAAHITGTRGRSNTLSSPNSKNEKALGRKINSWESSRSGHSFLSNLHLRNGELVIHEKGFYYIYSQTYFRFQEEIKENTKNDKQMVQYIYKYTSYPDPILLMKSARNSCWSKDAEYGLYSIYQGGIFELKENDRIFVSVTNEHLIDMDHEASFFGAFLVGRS
MUC16-targeted mesothelin-TR3 fusion protein (Meso-TR3) (human), sequence (chain, as listed by the source limits assumed, form in doubt): as the sequence (chain) above

On to “soluble, FLAG-tagged human mesothelin (secreted form, GPI signal sequence deleted) (from UniProt Q13421 37-598) (ligand)”, for which the percent of cells positive for the FLAG epitope tag in assay [1] is 100%.
For the substance “soluble death receptor 5 (DR5-Fc) (from UniProt O14763 56-182) (Fc fusion)”, in assay [2], the cell death of OVCAR3 cells by Meso-TR3 at the highest DR5-Fc concentration was under 10% and the cell death of OVCAR3 cells by Meso-TR3 in the absence of DR5-Fc came to 90%.
“MUC16-targeted mesothelin-TR3 fusion protein (Meso-TR3)”: in assay [3], the cell death of MUC16-positive OVCAR3 cells at the highest drug dose worked out at 65%; the cell killing of OVCAR3 cells by Meso-TR3, highest dose of soluble mesothelin competitor was 40%; the cell killing of OVCAR3 cells by Meso-TR3, no competitor was determined as 80%; the fraction of MUC16-positive HeLa cells after Meso-TR3 treatment (flow cytometry) is 54%. The fraction of MUC16-positive HeLa cells before Meso-TR3 treatment (flow cytometry) in assay [3] is 80%.
